Patent US20160082074A1

Key:
calcineurin = test: cell-based or functional assay
[1] = molecular target: human cyclophilin A (human) (UniProt P62937); test: cell-based or functional assay
Sequence of human cyclophilin A (human) (P62937 whole entry): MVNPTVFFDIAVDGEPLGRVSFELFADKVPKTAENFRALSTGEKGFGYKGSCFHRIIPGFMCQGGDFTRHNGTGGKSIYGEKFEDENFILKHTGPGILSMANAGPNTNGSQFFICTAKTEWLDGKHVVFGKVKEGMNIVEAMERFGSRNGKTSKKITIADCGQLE

| In vitro inhibition CnA IC50 (calcineurin) | In vitro inhibition human CypA IC50 [nM] (protease-coupled PPIase assay) [1] | Substance |
| --- | --- | --- |
| 50 nM | – | CypA/CsA complex |
| – | 9.1 nM | cyclosporin A (peptide) |
